Earlier results in US6774099B1, “Dishwashing detergent compositions containing mixtures or crystallinity-disrupted surfactants” (The Procter & Gamble Company, priority 1999, dated 2004).

Details: enzymes compared at 0.075 to 2.5 mg protein per liter

lard stain removal efficiency, factor over the wild-type lipase: 4.4
B1: D96L: D96L lipolytic enzyme variant of the native lipase derived from Humicola lanuginosa (protein, UniProt O59952 23-291, looked up, variant D96L)
Lipase: EVSQDLFNQFNLFAQYSAAAYCGKNNDAPAGTNITCTGNACPEVEKADATFLYSFEDSGVGDVTGFLALDNTNKLIVLSFRGSRSIENWIGNLNFLLKEINDICSGCRGHDGFTSSWRSVADTLRQKVEDAVREHPDYRVVFTGHSLGGALATVAGADLRGNGYDIDVFSYGAPRVGNRAFAEFLTVQTGGTLYRITHTNDIVPRLPPREFGYSHSSPEYWIKSGTLVPVTRNDIVKIEGIDATGGNNQPNIPDIPAHLWYFGLIGTCL
